Positions count from the first letter of the chain named.
B1: BHV-1 wt UL49.5 (glycoprotein N) (other)
chain: DPLLDAMRREGAMDFWSAGCYARGVPLSEPPQALVVFYVALTAVMVAVALYAYGLCFRLMGASGPNKKESRGRG
B2: BHV-1 UL49.5 30AAA32 (other)
chain: B1 chain with R8A, R9A, E10A
B3: BHV-1 UL49.5 30AAA32 CT-null (other)
chain: DPLLDAMAAAGAMDFWSAGCYARGVPLSEPPQALVVFYVALTAVMVAVALYAYGLCF
B4: BHV-1 UL49.5 CT-null (other)
chain: B3 chain with A8R, A9R, A10E
B5: BHV-1 UL49.5Δ30-32 (other)
chain: DPLLDAMGAMDFWSAGCYARGVPLSEPPQALVVFYVALTAVMVAVALYAYGLCFRLMGASGPNKKESRGRG
B6: BHV-1 UL49.5Δ30-32 CT-null (other)
chain: DPLLDAMGAMDFWSAGCYARGVPLSEPPQALVVFYVALTAVMVAVALYAYGLCF

Each binder was assayed against bovine TAP1 (bovine) (assay: cell-based or functional assay).

Row | Binder | MHC-I surface expression on infected MDBK cells (FACS) [%] | inhibition of TAP-mediated peptide transport in infected MDBK cells at 8 hpi (FITC peptide, FACS) [%] | MHC-I surface expression relative to BHV-1 wt-infected MDBK cells [fold] | peptide transport at 8 hpi relative to BHV-1 wt-infected MDBK cells [fold]
1 | B1 | 36.2 | 84 | – | –
2 | B2 | 75 | 27 | 2 | 4
3 | B3 | 89.1 | 10 | 2.5 | ~6
4 | B4 | 49.6 | 63 | 1.3 | 2.5
5 | B5 | 74.3 | 23 | 2 | 4
6 | B6 | 88.6 | 7 | 2.5 | ~6

From patent US20130034585A1 (BOARD OF SUPERVISORS OF LOUISIANA STATE UNIVERSITY AND …, published 2013)
